B1: nANGPTL4: N-terminal fragment of ANGPTL4, aa 26-164, SEQ ID NO: 24, purchased from R&D Systems (protein)
chain: GPVQSKSPRFASWDEMNVLAHGLLQLGQGLREHAERTRSQLSALERRLSACGSACQGTEGSTDLPLAPESRVDPEVLHSLQTQLKAQNSRIQQLFHKVAQQQRHLEKQHLRIQHLQSQFGLLDHKHLDHEVAKPARRK
modifications: nANGPTL4
B2: ANGPTL4: Recombinant human ANGPTL4 (Angiopoietin-like 4), full length, SEQ ID NO: 1, purchased from R&D Systems (protein, listed as Homo sapiens)
chain: MSGAPTAGAALMLCAATAVLLSAQGGPVQSKSPRFASWDEMNVLAHGLLQLGQGLREHAERTRSQLSALERRLSACGSACQGTEGSTDLPLAPESRVDPEVLHSLQTQLKAQNSRIQQLFHKVAQQQRHLEKQHLRIQHLQSQFGLLDHKHLDHEVAKPARRKRLPEMAQPVDPAHNVSRLHRLPRDCQELFQVGERQSGLFEIQPQGSPPFLVNCKMTSDGGWTVIQRRHDGSVDFNRPWEAYKAGFGDPHGEFWLGLEKVHSITGDRNSRLAVQLRDWDGNAELLQFSVHLGGEDTAYSLQLTAPVAGQLGATTVPPSGLSVPFSTWDQDHDLRRDKNCAKSLSGGWWFGTCSHSNLNGQYFRSIPQQRQKLKKGIFWKTWRGRYYPLQATTMLIQPMAAEAAS
B3: cANGPTL4: C-terminal fragment of ANGPTL4, aa 164-406, fibrinogen-like domain, purchased from R&D Systems (protein, listed as Homo sapiens)
chain: RLPEMAQPVDPAHNVSRLHRLPRDCQELFQVGERQSGLFEIQPQGSPPFLVNCKMTSDGGWTVIQRRHDGSVDFNRPWEAYKAGFGDPHGEFWLGLEKVHSITGDRNSRLAVQLRDWDGNAELLQFSVHLGGEDTAYSLQLTAPVAGQLGATTVPPSGLSVPFSTWDQDHDLRRDKNCAKSLSGGWWFGTCSHSNLNGQYFRSIPQQRQKLKKGIFWKTWRGRYYPLQATTMLIQPMAAEAAS

Assays:
[1] = test system: Balb/c mice challenged with LPS; assay: LPS-induced endotoxemia (sepsis) in mice; format: in vivo; conditions: for sepsis-associated mortality / survival rate: 2 μg/mouse i.v.
Method: FIG. 9: ANGPTL4 protects against LPS-induced endotoxemia by preventing vascular dysfunction and organ failure. A-B, Balb/c mice received LPS (5 mg kg-1, i.p.); 30 min after LPS challenge, mice received recombinant human ANGPTL4 (2 μg, intravenously), or vehicle as a control. A, A schematic representation of the protocol used. B, Survival curve (n=16 mice per group): **** P<0.0001; two-sided log-rank Mantel-Cox survival analysis. C,D, Balb/c mice received LPS (5 mg kg-1, i.p.); 30 min after LPS challenge, mice received nANGPTL4 (2 μg, intravenously), or vehicle as a control. C, A schematic representation of the protocol used. D, Survival curve (n=6 mice per group): ** P=0.0033; two-sided log-rank Mantel-Cox survival analysis. E, F, Balb/c mice received LPS (5 mg kg-1, i.p.); 30 min after LPS challenge, mice received Peptide 1 (2 μg, intravenously), or vehicle as a control. E, A schematic representation of the protocol used. F, Survival curve (n=6 mice per group): * P=0.0163; two-sided log-rank Mantel-Cox survival analysis. G, Balb/c mice received LPS (5 mg kg-1. i.p.): 30 min after LPS challenge, mice received recombinant human peptide P9 (2 μg. intravenously). or vehicle as a control. Survival curves (n=6 mice per group). *** P<0.001: two-sided log-rank Mantel-Cox survival analysis. H. Balb/c mice received LPS (4 mg kg-1. i.p.) together with anti-ANGPTL4 blocking antibody (10 μg kg-1. i.v) or vehicle as a control. 18 h after LPS challenge. mice were perfused with Evans blue for 1 h. were killed and brain were extracted. Quantification analysis of Evans blue extravasation (n=4 mice per group). Bars and error bars show the mean±s.e.m., respectively, from two independent experiments: *** P<0.001: NS, not significant (P>0.05) one-way ANOVA Tukey's multiple comparison test.
Female BALB/c mice, obtained from Janvier Labs, 9-10 weeks of age, were administered LPS at 5 mg/kg intraperitoneally and survival was monitored for 72 h (n=12 per group). BALB/c mice were randomly divided into 2 groups: LPS and LPS+Angptl4. Angptl4 (2 μg/mice) or vehicle (physiological saline solution) was administered intravenously 30 min after LPS challenge. In some experiments, blood serum, kidney and lung were collected at 18 h post-LPS challenge. Kidney and lungs were fixed in 4% PFA, embedded in paraffin, and 5-μm sections were cut from each block and stained with H&E. The stained sections were observed and acquired using a slide scanner (Lamina, Perkin Elmer). Analysis of the images was performed using ImageJ software (NIH).
Since severe endothelial dysfunction, leading to dysregulation of hemostasis and vascular dysfunction, is central to the progression to organ failure during sepsis, we analysed whether ANGPTL4 could play a protective role in sepsis, using a lipopolysaccharide (LPS)-induced endotoxemia (FIG. 9A). After LPS-challenge (5 mg kg-1, i.p.), all mice died within two days (FIG. 9B).

[2] = test system: SCID mice grafted with human skin infected with Nm 2C4.3; assay: Vascular lesions in SCID mice grafted with human skin infected with N. meningitidis (4 h); format: in vivo; conditions: for vascular colonization of human dermal vessels at 4 hours post-infection / vessel thrombosis in skin grafts / integrity of the endothelial cell junctions (VE-cadherin staining): 1 μg/mouse i.v.; for vessel thrombosis in skin grafts: 4 h post-infection
Method: FIG. 7: ANGPTL4 reduces signs of thrombosis, vascular injury and inflammation. A-D, SCID mice grafted with human skins were infected intravenously with Nm 2C4.3 wild-type strain (5×10^6 bacteria) or left uninfected. A period of 30 min or 2 h after bacterial challenge, mice received 1 μg of recombinant human ANGPTL4, nANGPTL4 or cANGPTL4 intravenously or the vehicle as a control. Mice were killed at 4 h post-challenge. This experiment was performed twice with n=3 or 4 mice per group, using skin from two different donors. A, A schematic representation of the protocols used in vivo. B, Control bacteraemia 4 h post-infection (mean±s.e.m.). C, Bacterial colonization within the skin grafts as assessed by immunofluorescence analysis was quantified using ImageJ software as the ratio between bacterial surface colonization and the lumen surface of the vessels. A total of 30-50 vessels per mouse were analysed. Error bars show mean±s.e.m. D, Thrombus formation within the skin grafts was assessed by immunofluorescence analysis and quantified using ImageJ as the ratio between thrombus surfaces and the lumen surface of the vessels. A total of 30-50 vessels per mouse were analysed. Error bars show mean±s.e.m.; *** P<0.0001; ns P=0.0541 two-tailed Student's t-test.
Six-week-old CB17/Icr-Prkdcscid female mice were obtained from Janvier Labs. Human skin tissues were obtained from adult patients undergoing plastic surgery in the Service de Chirurgie Plastique et Reconstructive of the Groupe Hospitalier Saint-Joseph. […] Experimental procedures were performed as previously described in accordance with the guidelines of the Institut National de la Santé et de la Recherche Médicale and conformed to the European ethical legislation (Directive 2010/63/EU). The experimental protocol was approved by the Animal Experimentation Ethics Committee of the Université Paris Descartes (consent forms CEEA34.O.J.L.039.12 and 2018012515596498). […]. A skin flap was created and a full thickness human skin graft was placed onto the wound bed. The transplants were held in place with 6-0 non-absorbable monofilament suture materials, and the flap was then sutured above the transplant. Grafted mice were infected 4-6 weeks after human skin transplantation. N. meningitidis was grown overnight at 37° C. on GCB agar plates prepared without iron and supplemented with 15 μM deferoxamine (Desferal, Novartis). Bacterial colonies were harvested and cultured in RPMI media with 1% BSA medium and 0.06 μM deferoxamine with gentle agitation to reach the exponential phase of growth. Bacteria were then resuspended in physiological saline solution. Mice were infected intravenously with 200 μl (5×10^6 bacteria) of this bacterial suspension. A 10 mg dose of human holotransferrin (R&D Systems) was administered intraperitoneally just before infection. Mice were killed at 4 h after infection. Human skin grafts were carefully collected using a sterile cutter. The tissue was washed in PBS and fixed overnight at 4° C. in 4% paraformaldehyde in phosphate buffer. After washing in phosphate buffer, the specimens were embedded in OCT medium and then frozen at −80° C. Sections of the dermis (7 μm thick) were immobilized on Superfrost Plus microscope slides and subjected to immunofluorescence analysis. Sections were incubated with the primary antibodies for 1 h in PBS/3% BSA then DAPI was added to Alexa-conjugated secondary antibodies for 1 h. After additional washing, coverslips were mounted in glycergel (Dako) and were further analysed using a slide scanner (Lamina, Perkin Elmer). Analysis of the images was performed using ImageJ software (NIH). […]

[3] = 18 h post-LPS challenge, data not shown

Molecule | sepsis-associated mortality / survival rate ([1]; LPS 5 mg kg-1 i.p.) | vascular colonization of human dermal vessels at 4 hours post-infection [2] | vessel thrombosis in skin grafts [2] | integrity of the endothelial cell junctions (VE-cadherin staining) ([2]; data not shown) | LPS-induced acute lung injury (histopathology) [1, 3] | LPS-induced renal haemorrhage [1, 3] | mice surviving LPS challenge ([1]; LPS 5 mg kg-1 i.p., 2 μg/mouse i.v. 30 min after LPS, all control mice died within two days) [%] | overall weight loss ([1]; compared to vehicle-treated control groups) | body temperature ([1]; data not shown) | effect on inflammatory markers upon administration at 2 h ([2]; administration 2 h post-infection, data not shown) | reduction of serum levels of TNF-α, IL-6, IL-8, soluble E-selectin, ICAM-1, VCAM-1, Angiopoetin-2, Thrombomodulin ([2]; mice sera, early administration (30 min), data not shown) | production of proinflammatory factors and biomarkers of vascular inflammation ([2]; 1 μg/mouse, data not shown)
B1 | reduced sepsis-associated mortality rate as efficiently as the full-length protein | no effect on vascular colonization | reduced vessel thrombosis | preserved the integrity of the endothelial cell junctions |  |  |  |  |  |  |  | 
B2 | markedly reduced sepsis-associated mortality rate |  | largely reduced vessel thrombosis | preserved the integrity of the endothelial cell junctions | no pathological signs | no sign of haemorrhage | 80 | not significantly reduced | rapidly stabilized | no effect | 60-80% | 
B3 | did not significantly increased the survival rate | no effect on vascular colonization | reduced vessel thrombosis |  |  |  |  |  |  |  |  | most efficient at preventing the production of proinflammatory factors and biomarkers of vascular inflammation

From patent US20250163116A1, “NEW METHOD TO TREAT INFECTIOUS DISEASES” (INSERM (INSTITUT NATIONAL DE LA SANTÉ ET DE LA RECHERCHE …, priority 2022, published 2025)
